Patent US20120058906A1

Tests used:
[1] = biological target: rHuman HGF R/c-MET/Fc Chimera, CF (R&D Systems Cat#358-MT/CF) (human) (UniProt P08581); assay: ECL (MSD Multi-Spot) binding, antigen spotted on plate; Fab 25 nM
[2] = biological target: rHuman EGF R/Fc Chimera, CF (R&D Systems Cat#344-ER) (human) (UniProt P00533); assay: as above
[3] = biological target: rHuman ErbB2/Fc Chimera, CF (R&D Systems Cat#1129-ER) (human) (UniProt P04626); assay: as above
[4] = biological target: rHuman HGF R/c-MET/Fc Chimera, CF (R&D Systems Cat#358-MT/CF) (human) (UniProt P08581); assay: ECL (MSD Multi-Spot) binding, antigen spotted on plate; Fab 1.25 nM
[5] = biological target: rHuman EGF R/Fc Chimera, CF (R&D Systems Cat#344-ER) (human) (UniProt P00533); assay: as above
[6] = biological target: rHuman ErbB2/Fc Chimera, CF (R&D Systems Cat#1129-ER) (human) (UniProt P04626); assay: as above
[7] = biological target: rHuman HGF R/c-MET/Fc Chimera, CF (R&D Systems Cat#358-MT/CF) (human) (UniProt P08581); assay: ECL (MSD Multi-Spot) binding, antigen spotted on plate; Fab 0.0625 nM
[8] = biological target: rHuman EGF R/Fc Chimera, CF (R&D Systems Cat#344-ER) (human) (UniProt P00533); assay: as above
[9] = biological target: rHuman ErbB2/Fc Chimera, CF (R&D Systems Cat#1129-ER) (human) (UniProt P04626); assay: as above
[10] = biological target: rHuman HGF R/c-MET/Fc Chimera, CF (R&D Systems Cat#358-MT/CF) (human) (UniProt P08581); assay: ECL (MSD Multi-Spot) binding, antigen spotted on plate; Fab 500 nM
[11] = biological target: rHuman EGF R/Fc Chimera, CF (R&D Systems Cat#344-ER) (human) (UniProt P00533); assay: as above
[12] = biological target: rHuman ErbB2/Fc Chimera, CF (R&D Systems Cat#1129-ER) (human) (UniProt P04626); assay: as above
[13] = biological target: rHuman P-Cadherin/Fc Chimera, CF (R&D Systems Cat#861-PC) (human) (UniProt P22223); assay: MSD ECL multi-spot assay, antigen spotted on plate, Fab 1.57 uM; blank spot 797

B1: Fab VH5-51_IGHD5-18*01>3_IGHJ4*01_G100K_G104T & V3-4_IGLJ1*01 (Fab, V domains shown)
VH: EVQLVQSGAEVKKPGESLKISCKGSGYSFTSYWIGWVRQMPGKGLEWMGIIYPGDSDTRYSPSFQGQVTISADKSISTAYLQWSSLKASDTAMYYCARRKYSYTYDYFDYWGQGTLVTVSS
VL: QTVVTQEPSFSVSPGGTVTLTCGLSSGSVSTSYYPSWYQQTPGQAPRTLIYSTNTRSSGVPDRFSGSILGNKAALTITGAQADDESDYYCVLYMGSGISYVFGTGTKVTVL
**Q.** B1 was tested. Which ECL signal [1] did it give?
**A.** 805

**Q.** And the ECL signal [2]?
**A.** 821

**Q.** And the ECL signal [3]?
**A.** 927

**Q.** And the ECL signal [4]?
**A.** 774

**Q.** What about the ECL signal [5] of the same binder?
**A.** 729

**Q.** What about the ECL signal [6] of the same binder?
**A.** 695

**Q.** And the ECL signal [7]?
**A.** 643

**Q.** What about the ECL signal [8] of the same binder?
**A.** 736

**Q.** What about the ECL signal [9] of the same binder?
**A.** 692

**Q.** And the ECL signal [10]?
**A.** 1300

**Q.** And the ECL signal [11]?
**A.** 1110

**Q.** What about the ECL signal [12] of the same binder?
**A.** 957

B2: Fab VH1-46_IGHD3-10*01_IGHJ4*01 & O1_IGKJ1*01 (Fab, V domains shown)
VH: QVQLVQSGAEVKKPGASVKVSCKASGYTFTSYYMHWVRQAPGQGLEWMGIINPSGGSTSYAQKFQGRVTMTRDTSTSTVYMELSSLRSEDTAVYYCAREYYYGSGSYYNDYFDYWGQGTLVTVSS
VL: DIVMTQTPLSLPVTPGEPASISCRSSQSLLDSDDGNTYLDWYLQKPGQSPQLLIYTLSYRASGVPDRFSGSGSGTDFTLKISRVEAEDVGVYYCMQRIEFPSWTFGQGTKVEIK
**Q.** Which ECL signal [13] does the source give for B2 here?
**A.** 2030
